# Data published in US20250243278A1.
# Legend:
# [1] = biological target: human B7H3 on A498 cells (human) (UniProt Q5ZPR3); test: flow cytometry, whole cell binding to B7H3+ A498 cells, MFI
# [2] = biological target: human B7H3 on A498 cells (human) (UniProt Q5ZPR3); test: as above; remark: listed apart in the source
# [3] = biological target: human B7H3 on A498 cells (human) (UniProt Q5ZPR3); test: flow cytometry, whole cell binding to B7H3+ A498 cells, MFI (FITC)
# [4] = biological target: recombinant human B7H3 extra cellular domain (ECD) protein (human) (UniProt Q5ZPR3); test: Octet binding assay
# Sequence of recombinant human B7H3 extra cellular domain (ECD) protein (human) (Q5ZPR3 29-461): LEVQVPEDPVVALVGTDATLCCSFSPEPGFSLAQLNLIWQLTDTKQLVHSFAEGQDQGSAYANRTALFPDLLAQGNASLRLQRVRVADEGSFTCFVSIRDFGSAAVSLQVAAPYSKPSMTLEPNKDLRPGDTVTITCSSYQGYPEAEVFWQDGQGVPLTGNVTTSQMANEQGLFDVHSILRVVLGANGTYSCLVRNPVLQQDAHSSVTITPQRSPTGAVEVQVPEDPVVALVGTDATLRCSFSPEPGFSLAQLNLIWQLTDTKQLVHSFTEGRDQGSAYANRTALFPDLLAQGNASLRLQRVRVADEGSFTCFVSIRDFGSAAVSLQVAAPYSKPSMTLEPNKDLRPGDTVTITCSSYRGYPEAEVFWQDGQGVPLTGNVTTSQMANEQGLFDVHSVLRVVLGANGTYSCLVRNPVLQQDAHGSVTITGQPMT
# Sequence of human B7H3 on A498 cells (human) (Q5ZPR3 29-534 limits assumed): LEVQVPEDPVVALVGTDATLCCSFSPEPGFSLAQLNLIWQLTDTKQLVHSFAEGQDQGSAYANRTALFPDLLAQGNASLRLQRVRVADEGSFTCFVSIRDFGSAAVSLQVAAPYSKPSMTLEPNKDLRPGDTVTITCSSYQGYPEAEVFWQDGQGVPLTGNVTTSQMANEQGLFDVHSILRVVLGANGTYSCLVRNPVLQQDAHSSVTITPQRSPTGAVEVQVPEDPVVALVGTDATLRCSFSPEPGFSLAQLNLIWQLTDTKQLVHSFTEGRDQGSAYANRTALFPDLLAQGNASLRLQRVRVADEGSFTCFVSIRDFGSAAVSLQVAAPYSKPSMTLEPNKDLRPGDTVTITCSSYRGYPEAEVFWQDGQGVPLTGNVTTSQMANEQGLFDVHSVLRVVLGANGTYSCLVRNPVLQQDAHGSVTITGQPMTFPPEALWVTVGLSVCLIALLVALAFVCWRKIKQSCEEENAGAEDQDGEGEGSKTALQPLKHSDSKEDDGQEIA
substance,measurement,setting,value
Reference Ab 1 (an enoblituzumab analog) (antibody),EC50,[1],7.94 nM
same,EC50,[2],2.18 nM
same,EC50,[3],0.697 nM
same,Kd,[4],0.739 nM
same,koff,[4],0.000199 s⁻¹
same,kon,[4],269000 M⁻¹ s⁻¹
